Results as given in patent publication US10233249B2, “Antibodies and methods for treating estrogen receptor-associated diseases” (BEIJING SHENOGEN PHARMA GROUP LTD., priority 2013, dated 2019).
Substitutions are numbered along the chain they refer to. Entries after “also recorded” stand apart in the source; their conditions may differ.

Assays:
[1] = target: T1, stable 3T3 cell lines induced to express human ER-α36 protein (Homo sapiens, UniProt P03372, I452L); test: FACS analysis of binding to inducible 3T3 cell lines; conditions: mouse IgG2b isotype control
T1 construct: expressed in transfected cells
T1 sequence (P03372 1-310 isoform P03372-4 I279L): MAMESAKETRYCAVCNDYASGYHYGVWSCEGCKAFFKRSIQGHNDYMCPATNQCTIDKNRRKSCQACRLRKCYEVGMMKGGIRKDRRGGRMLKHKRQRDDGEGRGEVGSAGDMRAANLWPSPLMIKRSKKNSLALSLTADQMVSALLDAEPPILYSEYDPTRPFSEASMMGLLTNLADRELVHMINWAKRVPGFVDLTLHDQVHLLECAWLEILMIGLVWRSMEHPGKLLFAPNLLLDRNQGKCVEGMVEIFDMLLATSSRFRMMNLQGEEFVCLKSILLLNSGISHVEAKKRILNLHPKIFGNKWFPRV

[2] = target: T2, membrane bound ER-α36 protein in MCF-7 cells (Homo sapiens, UniProt P03372); test: Immunofluorescence analysis of MCF-7 mammosphere; type: cell-based
T2 construct: endogenous in cells; host or cells: MCF7
T2 sequence (P03372 1-310 isoform P03372-4): T1 sequence (P03372 1-310 isoform P03372-4 I279L) with L279I
Experimental: The ability of SNGmB1 to detect membrane bound ER-α36 protein in MCF-7 cells was assessed using immunostaining. MCF-7 mammosphere was formed and immunostaining was performed by steps as follows:
1. MCF-7 cells were cultured in DMEM without phenol red for 2 days and stained with 7-aminoactinomycin D (7-AAD) followed by FACS sorting. The sorted cells were cultured in DMEM/F12 without phenol red medium (Gibo) with B27 (Invitrogen), EGF (BD Biosciences) and bFGF (BD Biosciences) for 6 days and the MCF-7 mammosphere was formed. 2. MCF-7 mammosphere was centrifuged at 1000 rpm for 4 min, and the supernatant was removed. 3. The mammosphere was washed with 500 μl PBS and was transferred to a 1.5 ml EP tube before centrifugation at 1000 rpm for 4 min, and the supernatant was discarded. 4. The precipitate was fixed with 500 μl paraformaldehyde (4%) for 20 min (or overnight), and was centrifuged at 1000 rpm for 4 min to move the supernatant. 5. The precipitate was washed with 500 μl PBS and centrifuged at 1000 rpm for 4 min, and the supernatant was discarded, wash three times using PBS. 6. The supernatant was removed and the precipitate was incubated with 50 μl goat serum blocking solution at 37° C. for 30 min; after centrifugation at 1000 rpm for 4 min, the supernatant was discarded. 7. […] The mammospheres was transferred to small observation dish, and stored at 4° C. to be detected.

[3] = target: T3, ER-α36 protein in human tumor tissues (Homo sapiens, UniProt P03372); test: Immunohistochemistry (IHC) of human tissue samples; conditions: paraffin tissue of breast cancer patients
T3 construct: from tissue; host or cells: paraffin sections of breast cancer patients' tissue
T3 sequence (P03372 1-310 isoform P03372-4): T1 sequence (P03372 1-310 isoform P03372-4 I279L) with L279I
Experimental: Immunohistochemistry (IHC) assay was used to evaluate the ability of utilizing a specific antibody like SNGmB1 to better detect the presence of ER-α36 in human tissue samples. 4 μm thick paraffin tissue blocks of breast cancer patients were de-paraffinized by immersing in the xylene for twenty minutes twice, followed by rehydrating sequentially in 99%, 90%, 85%, 75%, 50% ethanol for 5 minutes each. The tissue sections were then washed three times with PBS. Antigen retrieval was then performed by heating in 95° C. citrate (pH 6.0) buffer for 15 minutes in microwave. Once cooled to room temperature, the sections were then washed with PBS three times, and incubated with 3% hydrogen peroxide for 20 minutes at room temperature, followed by washing with PBS. […] Upon washing with PBS five times, pre-diluted secondary antibody (ZSGB-Bio, Cat# PV-6000) was added and incubated for 20 minutes at room temperature. The sections were then washed with PBS and incubated with DAB solution for 2-5 minutes, followed by rinsing in distilled water for 5-10 minutes. The sections were then counter-stained in hematoxylin (ZSGB-BIO, Cat# ZLI-9609), followed by rinsing sequentially in 50%, 75%, 85%, 90% and 99% A ethanol to dehydrate. The sections were then cleared in xylene and sealed with neutral balsam before evaluated with microscope.

[4] = system: 4T1-ER-α36 positive cells; test: 4T1-ER-α36 lung tumor metastasis model; type: in vivo, nude mice
Experimental: FACS-sorted 4T1-ER-α36 positive cells (ATCC) (5*10^4) were injected in the nude mice via tail vein. Average 20 mg/kg body SNGmB1 or control IgG (20 mg/kg body weight) was administered by tail vein injection every 3 or 4 days for 18 days, and tamoxifen (1 mg/kg body weight) was intragastric administrated synchronously. […] Representative immunohistochemical images showing ALDH1 in lung metastatic foci with tamoxifen administrated tumor-bearing nude mice respectively after control IgG and SNGmB1 antibody treatment. Hematoxylin was used for counterstaining. Seen from FIG. 26a and FIG. 26b, it is illustrated that ALDH1 is decreased after SNGmB1 injection. scale bars 50 μm.

[5] = target: T4, ER-α36 (Homo sapiens, UniProt P03372); test: ELISA binding specificity of SNGmB1; parameters: made in house; host or cells: E. coli BL21 (DE3); conditions: plate coated at 1 μg/ml, antibody 0.004-10 μg/ml
T4 sequence (P03372 284-310 isoform P03372-4): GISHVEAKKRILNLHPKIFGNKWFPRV
Experimental: The binding specificity of SNGmB1 was assessed using ELISA assay. Five different proteins were used to coat the assay plate at 1 μg/ml. After extensive blocking, the SNGmB1 antibody of different concentrations (10, 2, 0.4, 0.08 and 0.016, 0.004 μg/ml) was added to the assay plate and incubated for 1.5 hours, followed by detection of complex formation using HRP (horse radish peroxidase) labeled anti-mouse IgG Fc (Invitrogen). An example of the data was shown below in FIG. 3. […] The key epitope residues in ER-α36 F domain for SNGmB1 binding have been mapped using both PepScan and Alanine Scan (see Example 5).

binding to 3T3 cell line induced to express human ER-α36 (FACS) [1]: specifically bound
binding to 27-amino acid peptide derived from the F domain of ER-α36 ("peptide") [5]: bind to
B1: SNGmB1: mouse monoclonal anti-ER-α36 antibody (mIgG2b), light chain SEQ ID NO: 16, heavy chain SEQ ID NO: 18 (antibody, listed as Mus musculus)
heavy: QAYLQQSGAELVRPGASVKMSCKASGYTFTSHNMHWIKQTPRQGLEWIGAIHPVNGDTAYNQKFKGKATLTVDKSSSTAYLQLSSLTSEESAVYFCAREGYGSVDYWGQGTTLTVSSAKTTPPSVYPLAPGCGDTTGSSVTLGCLVKGYFPESVTVTWNSGSLSSSVHTFPALLQSGLYTMSSSVTVPSSTWPSQTVTCSVAHPASSTTVDKKLEPSGPISTINPCPPCKECHKCPAPNLEGGPSVFIFPPNIKDVLMISLTPKVTCVVVDVSEDDPDVQISWFVNNVEVHTAQTQTHREDYNSTIRVVSTLPIQHQDWMSGKEFKCKVNNKDLPSPIERTISKIKGLVRAPQVYILPPPAEQLSRKDVSLTCLVVGFNPGDISVEWTSNGHTEENYKDTAPVLDSDGSYFIYSKLNMKTSKWEKTDSFSCNVRHEGLKNYYLKKTISRSPGK
light: ETTVTQSPASLSMTIGEKVTIRCITSTDIDDDMNWYRKKPGQPPKLLISEGNTLRPGVPSRFSSSGYGTDFVFTIENMLSEDVADYYCLQSDNLPLTFGAGTKLELKRADAAPTVSIFPPSSEQLTSGGASVVCFLNNFYPKDINVKWKIDGSERQNGVLNSWTDQDSKDSTYSMSSTLTLTKDEYERHNSYTCEATHKTSTSPIVKSFNRNEC
immunostaining of membrane bound ER-α36 on MCF-7 mammospheres [2]: stained the MCF-7 mammospheres in a dose-dependent manner; also recorded: can detect membrane bound ER-α36 on MCF7
detection of ER-α36 protein expression in human tumor tissues [3]: detected both membrane bound and cytoplasmic expression
metastasis of lung tumor ([4]; nude mice, 20 mg/kg by tail vein every 3 or 4 days for 18 days, with tamoxifen 1 mg/kg): prevents the metastasis of lung tumor
ALDH1 in lung metastatic foci (immunohistochemistry) ([4]; tamoxifen administrated tumor-bearing nude mice, versus control IgG): decreased
